Target: FabXol3 (omalizumab-derived Fab with three point mutations)
Assay: SPR; FabXol3, FabXol or intact omalizumab amine-coupled at low density; IgE-Fc flowed over, 2-fold dilutions from 100 nM; 20 mM HEPES pH 7.4, 150 mM NaCl, 0.005% P-20; 25 °C; monophasic kinetics at low concentrations

B1: IgE-Fc, P01854 105-427 (domain or fragment)
chain: DIVASRDFTPPTVKILQSSCDGGGHFPPTIQLLCLVSGYTPGTIQITWLEDGQVMDVDLSTASTTQEGELASTQSELTLSQKHWLSDRTYTCQVTYQGHTFEDSTKKCADSNPRGVSAYLSRPSPFDLFIRKSPTITCLVVDLAPSKGTVQLTWSRASGKPVNHSTRKEEKQRNGTLTVTSTLPVGTRDWIEGETYQCRVTHPHLPRALMRSTTKTSGPRAAPEVYAFATPEWPGSRDKRTLACLIQNFMPEDISVQWLHNEVQLPDARHSTTQPRKTKGSGFFVFSRLEVTRAEWEQKDEFICRAVHEAASPSQTVQRAVSVNPGK
modifications: not checked
- Kd: 1 nM
- koff: 0.0008 s⁻¹
- kon: 1.2e+06 M⁻¹ s⁻¹
